# Experimental data taken from US11629364B2, “Methods for synthesizing anticoagulant polysaccharides” (OPTIMVIA, LLC, priority 2019, dated 2023).
# Tests used:
# [1] = 3OST activity confirmed by 1H NMR; assay type: biochemical; settings: PNS as aryl sulfate compound
# Procedure: Each enzyme was purified according to the procedure of Example 1. To each purified protein solution, 20 mg of an aryl sulfate compound (PNS or NCS) dissolved in 2 mL of reaction buffer (50 mM MES pH 7.0, 2 mM CaCl2)) was added to the protein solution and incubated at 37° C. for 10 min. 2.5 mL of 2 mg/mL solution of the commercial heparin polysaccharide utilized in Example 5 was added to protein/donor solution and incubated overnight at 37° C.
# Each reaction was centrifuged at 5,000×g for 10 min, applied to a pre-wetted 30K MWCO Amicon-15 filter and centrifuged at 5,000×g for 10 min. The filter was washed once with 2 mL water, and centrifuged again. The filtrate was added to a 1K MWCO Dialysis membrane, dialyzed for 2 days in Milli-Q water, with water changes at 1 h, 2 h, 8 h, 16 h, 32 h, and then lyophilized. The dry, white powder was resuspended in 400 μL D20, lyophilized to remove exchangeable protons, then resuspended in 600 μL D2O and transferred to NMR tubes (Wilmad, 0.38 mm×7″). To determine if sulfotransfer took place, ^1H NMR spectra were obtained on a Bruker 600 MHz NMR, 32 scans, with water suppression. Within FIG. 30, the 3-O positions of any of the glucosamine residues can be sulfated by the 3OST enzyme. The sulfated 3-O position is circled in the central polysaccharide. […]
# [2] = 3OST activity: 3-O sulfated products detected by LCMS after lyase digestion; assay type: biochemical
# Procedure: A study was conducted in accordance with embodiments of the present disclosure to confirm 3OST activity of enzymes comprising the amino acid sequence of SEQ ID NO: 24, SEQ ID NO: 26, or SEQ ID NO: 28 by detecting the presence of 3-O sulfated polysaccharide products as a result of their sulfotransfer reaction, using a reaction, using a similar LCMS procedure as in Example 3, except that the sulfo acceptor polysaccharide was commercially-available heparin (CAS code: 9041-08-1, available from Millipore Sigma). Even though the unmodified heparin contains ˜3.5% (w/w) of 3-O sulfated glucosamine residues, about ˜60% of the glucosamine residues are N,6-sulfated and are adjacent to a 2-O sulfated hexuronic acid residue, as in Formula X. Consequently, these N,6-sulfated glucosamine residues can still be 3-O sulfated.
molecule,measurement,setting,value
"SEQ ID NO: 26: engineered aryl sulfate-dependent 3OST enzyme, mutant of isoform 1 of the human 3OST enzyme (protein, Amino acid sequence encoding for engineered arylsulfate-dependent 3-O-sulfotransferase variant 2, engineered aryl sulfate-dependent 3OST enzyme, mutant of isoform 1 of the human 3OST enzyme) MGTASNGSTQQLPQTIIIGVGHGGTRALLEMLSLHPDVAAAENEVHFFDWEEHYSQGLGWYLTQMPFSSPHQLTVEKTHSYFTSPKVPERIHSMNPTIRLLLILRDPSERVLSAYTHMLYNHLQKHKPYPPIEDLLMRDGRLNLDYTGLNRSLYHAHMLNWLRFFPLGHIHIVDGDRLIRDPFPEIQKVERFLKLSPQINASNFYFNKTKGFYCLRDSGKDRCLHESKGRAHPQVDPKLLDKLHEYFHEPNKKFFKLVGRTFDWH",3OST sulfotransferase activity with PNS (NMR),[1],3-O sulfotransferase activity
same,3OST sulfotransferase activity with NCS,[2]; NCS as aryl sulfate compound,active as a sulfotransferase
same,abundance of 3-O sulfation in product,[2]; relative to the commercial heparin standard,higher abundance of 3-O sulfation
